From patent US20240343817A1 (STAIDSON BEIJING BIOPHARMACEUTICALS, published 2024)
Positions count from the first letter of the chain named. Each block holds one binder with its values, some of them ahead of it.

Experiments:
[1] = molecular target: T1, Rhesus monkey CD40 extracellular domain (recombinant) (Rhesus monkey, UniProt F6SNI1 21-193); assay: ELISA; CD40 extracellular domain coated 0.1 µg/well, antibody titrated from 10 µg/mL 1:3, anti-human IgG-HRP
T1 construct: extracellular domain; also called RheCD40
Description: (§1) ELISA Binding Assay: The selected monoclonal full-length antibodies D1, D2, D3, D5, D6, or D7 were subjected to binding assays with CD40 extracellular domain of different species, respectively. The assay was designed to identify full-length antibodies that cross-reacted with CD40 of different species. Briefly, the human or Rhesus monkey CD40 prepared in example 1 was dissolved in PBS and coated on […] with 0.1 μg/well followed by incubation at 4° C. overnight. The 96-well plates were washed with TBST before adding antibodies, blocked with 5% milk for 1-2 h at 37° C., and washed again with TBST. Firstly, each antibody sample was diluted to 10 μg/mL, and then serially diluted at a 1:3 ratio. 100 μL of serially diluted antibodies were added to each well and incubated for 1 h at 37° C. After washing with TBST for 6 times, 100 μL of the secondary antibody (goat anti-human IgG-HRP (Sigma. A8667)) was added to each well and incubated for 1 h at 37° C. After washing with TBST for 3 times, TMB was added with 100 μL/well and incubated for 10-20 minutes at 37° C. 2M H₂SO₄ was used to stop the reaction and plates were read for the absorbance at 450 nm. The ELISA results were then analyzed and the binding curves were generated by PRISM.

[2] = molecular target: T2, human CD40 extracellular domain (recombinant) (human, UniProt P25942 21-193); assay: as above
T2 construct: Extracellular domain expressed in 293F cells; also called hCD40; CD40-His; not shown: tag (His, Avi-His, mouse Fc or human Fc)
Description: as §1

human CD40 on cells = human CD40 on cells (human, UniProt P25942 21-277); assay: cell-based or functional assay
Sequence of human CD40 on cells (P25942 21-277 limits assumed): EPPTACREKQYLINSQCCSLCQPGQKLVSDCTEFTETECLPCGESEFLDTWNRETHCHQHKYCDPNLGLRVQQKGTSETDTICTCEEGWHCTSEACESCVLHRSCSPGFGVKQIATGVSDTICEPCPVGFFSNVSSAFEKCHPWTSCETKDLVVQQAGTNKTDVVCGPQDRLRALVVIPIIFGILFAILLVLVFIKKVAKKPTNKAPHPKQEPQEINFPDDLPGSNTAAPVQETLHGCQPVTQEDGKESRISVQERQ

T2 sequence (P25942 21-193): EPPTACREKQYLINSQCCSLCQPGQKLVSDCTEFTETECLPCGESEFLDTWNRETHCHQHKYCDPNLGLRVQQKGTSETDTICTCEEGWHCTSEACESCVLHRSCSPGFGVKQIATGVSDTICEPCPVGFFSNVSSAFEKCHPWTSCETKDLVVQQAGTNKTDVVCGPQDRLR

EC50 [1]: 0.227 µg/mL
EC50 [2]: 0.236 µg/mL
IC50, HEK-Blue CD40L NF-κB activation assay (SEAP), Fc-3*G4S-CD40L stimulus (human CD40 on cells): 0.0215 µg/mL
B1: D1 (antibody, V domains shown)
VH: EVQLQQSGPDLVKPGASMKISCKASVYSFTGYTVNWVKQSHGKSLEWIGLINPYNGGTTYNQKFKGKATLTIDKSSTTAYMELLSLTSEDSAVYYCASSYYSNPYAMDYWGQGTSVTVSS
VL: DIVLNQSQKFMSTSVGDRVSITCKASQNVHTAVAWYQQKPGQSPKALIYLASDRRTGIPDRFTGSGSGTDFTLTIDNVQSEDLADYFCLQHWNYPLTFGAGTKLELK
notes: Full-length chimeric antibody: mouse variable domains with a human IgG1 or IgG4 heavy chain constant domain and a human kappa light chain constant domain; also called anti-CD40 antibody D1; mouse antibody D1

EC50 [1]: 0.473 µg/mL
EC50 [2]: 0.193 µg/mL
IC50, HEK-Blue CD40L NF-κB activation assay (SEAP), Fc-3*G4S-CD40L stimulus (human CD40 on cells): 0.0171 µg/mL
B2: D2 (antibody, V domains shown)
VH: EVHVKQSGAELVKPGASVKLSCTASGFNIKDAYMHWVKQRPEQGLEWIGRIDPANGNTKYDPKFQGKASITTDTSSNTAYLQLSSLTSEDTAVYYCTPNYYGSRYPFAYWGQGTTVTVSS
VL: DIVLTQSPAIMSASPGEKVSITCSASSSVSYMHWFQQKPGTSPKLWIYSTSNLASGVPARFSGSGSGTSYSLTISRMEADDAATYYCQQGSSYPLTFGAGTKLELK
notes: Full-length chimeric antibody: mouse variable domains with a human IgG1 or IgG4 heavy chain constant domain and a human kappa light chain constant domain; also called anti-CD40 antibody D2

EC50 [1]: 0.0743 µg/mL
EC50 [2]: 0.224 µg/mL
IC50, HEK-Blue CD40L NF-κB activation assay (SEAP), Fc-3*G4S-CD40L stimulus (human CD40 on cells): 0.0224 µg/mL
B3: D3 (antibody, V domains shown)
VH: B2 VH with H3Q, V4L, K5Q, A32S, S69T, T72A, T97V, S103A, R104A
VL: B2 VL with T5I, S20T, L45V, S62G, D80E
notes: Full-length chimeric antibody: mouse variable domains with a human IgG1 or IgG4 heavy chain constant domain and a human kappa light chain constant domain; also called anti-CD40 antibody D3

EC50 [1]: 0.243 µg/mL
EC50 [2]: 0.176 µg/mL
IC50, HEK-Blue CD40L NF-κB activation assay (SEAP), Fc-3*G4S-CD40L stimulus (human CD40 on cells): 0.00712 µg/mL
B4: D6 (antibody, V domains shown)
VH: QVQLQQSGAELVRPGVSVKISCKGSGYTFTDHAIHWVKQSHARRLEWIGAISTNYGAATYNQKFKGKATMTVDKSSSTAYMELARLTSEDSAIYYCARRGSHGDWFAYWGQGTLVTVSA
VL: B2 VL with V3E, S20T, A59V, R76S, D80E, Q88H, G90Y, S91H, S92R, Y93S
notes: Full-length chimeric antibody: mouse variable domains with a human IgG1 or IgG4 heavy chain constant domain and a human kappa light chain constant domain; also called anti-CD40 antibody D6

EC50 [1]: 0.133 µg/mL
EC50 [2]: 0.261 µg/mL
IC50, HEK-Blue CD40L NF-κB activation assay (SEAP), Fc-3*G4S-CD40L stimulus (human CD40 on cells): 0.017 µg/mL
B5: D7 (antibody, V domains shown)
VH: QIQLLQSGAELVKPGASVKLSCTASGFNIKDAYMHWVKQRPEQGLEWIGRIDPANGYTKSDPKFQGKATITSDTSSNTAYLQLSSLTSEDTAVYYCAPNYYGSRYPFAYWGQGTLVTVSS
VL: B2 VL with D1Q, S20T, L45I, S49F, D80E, S92T
notes: Full-length chimeric antibody: mouse variable domains with a human IgG1 or IgG4 heavy chain constant domain and a human kappa light chain constant domain; also called anti-CD40 antibody D7
